Test [1] deals with human wide-type Cav3.2 (human) (UniProt O95180). Kind of test: cell-based or functional assay.
Another test concerns the target rat Cav3.2 (rat) (UniProt Q9EQ60). In words: cell-based or functional assay.

Ends that are not written are not given here. EGFP = GFP fused N-terminally (GFP-linker-3.2iPA), EGFP per filing

Chain of UniProt Q9EQ60 (Q9EQ60 whole entry): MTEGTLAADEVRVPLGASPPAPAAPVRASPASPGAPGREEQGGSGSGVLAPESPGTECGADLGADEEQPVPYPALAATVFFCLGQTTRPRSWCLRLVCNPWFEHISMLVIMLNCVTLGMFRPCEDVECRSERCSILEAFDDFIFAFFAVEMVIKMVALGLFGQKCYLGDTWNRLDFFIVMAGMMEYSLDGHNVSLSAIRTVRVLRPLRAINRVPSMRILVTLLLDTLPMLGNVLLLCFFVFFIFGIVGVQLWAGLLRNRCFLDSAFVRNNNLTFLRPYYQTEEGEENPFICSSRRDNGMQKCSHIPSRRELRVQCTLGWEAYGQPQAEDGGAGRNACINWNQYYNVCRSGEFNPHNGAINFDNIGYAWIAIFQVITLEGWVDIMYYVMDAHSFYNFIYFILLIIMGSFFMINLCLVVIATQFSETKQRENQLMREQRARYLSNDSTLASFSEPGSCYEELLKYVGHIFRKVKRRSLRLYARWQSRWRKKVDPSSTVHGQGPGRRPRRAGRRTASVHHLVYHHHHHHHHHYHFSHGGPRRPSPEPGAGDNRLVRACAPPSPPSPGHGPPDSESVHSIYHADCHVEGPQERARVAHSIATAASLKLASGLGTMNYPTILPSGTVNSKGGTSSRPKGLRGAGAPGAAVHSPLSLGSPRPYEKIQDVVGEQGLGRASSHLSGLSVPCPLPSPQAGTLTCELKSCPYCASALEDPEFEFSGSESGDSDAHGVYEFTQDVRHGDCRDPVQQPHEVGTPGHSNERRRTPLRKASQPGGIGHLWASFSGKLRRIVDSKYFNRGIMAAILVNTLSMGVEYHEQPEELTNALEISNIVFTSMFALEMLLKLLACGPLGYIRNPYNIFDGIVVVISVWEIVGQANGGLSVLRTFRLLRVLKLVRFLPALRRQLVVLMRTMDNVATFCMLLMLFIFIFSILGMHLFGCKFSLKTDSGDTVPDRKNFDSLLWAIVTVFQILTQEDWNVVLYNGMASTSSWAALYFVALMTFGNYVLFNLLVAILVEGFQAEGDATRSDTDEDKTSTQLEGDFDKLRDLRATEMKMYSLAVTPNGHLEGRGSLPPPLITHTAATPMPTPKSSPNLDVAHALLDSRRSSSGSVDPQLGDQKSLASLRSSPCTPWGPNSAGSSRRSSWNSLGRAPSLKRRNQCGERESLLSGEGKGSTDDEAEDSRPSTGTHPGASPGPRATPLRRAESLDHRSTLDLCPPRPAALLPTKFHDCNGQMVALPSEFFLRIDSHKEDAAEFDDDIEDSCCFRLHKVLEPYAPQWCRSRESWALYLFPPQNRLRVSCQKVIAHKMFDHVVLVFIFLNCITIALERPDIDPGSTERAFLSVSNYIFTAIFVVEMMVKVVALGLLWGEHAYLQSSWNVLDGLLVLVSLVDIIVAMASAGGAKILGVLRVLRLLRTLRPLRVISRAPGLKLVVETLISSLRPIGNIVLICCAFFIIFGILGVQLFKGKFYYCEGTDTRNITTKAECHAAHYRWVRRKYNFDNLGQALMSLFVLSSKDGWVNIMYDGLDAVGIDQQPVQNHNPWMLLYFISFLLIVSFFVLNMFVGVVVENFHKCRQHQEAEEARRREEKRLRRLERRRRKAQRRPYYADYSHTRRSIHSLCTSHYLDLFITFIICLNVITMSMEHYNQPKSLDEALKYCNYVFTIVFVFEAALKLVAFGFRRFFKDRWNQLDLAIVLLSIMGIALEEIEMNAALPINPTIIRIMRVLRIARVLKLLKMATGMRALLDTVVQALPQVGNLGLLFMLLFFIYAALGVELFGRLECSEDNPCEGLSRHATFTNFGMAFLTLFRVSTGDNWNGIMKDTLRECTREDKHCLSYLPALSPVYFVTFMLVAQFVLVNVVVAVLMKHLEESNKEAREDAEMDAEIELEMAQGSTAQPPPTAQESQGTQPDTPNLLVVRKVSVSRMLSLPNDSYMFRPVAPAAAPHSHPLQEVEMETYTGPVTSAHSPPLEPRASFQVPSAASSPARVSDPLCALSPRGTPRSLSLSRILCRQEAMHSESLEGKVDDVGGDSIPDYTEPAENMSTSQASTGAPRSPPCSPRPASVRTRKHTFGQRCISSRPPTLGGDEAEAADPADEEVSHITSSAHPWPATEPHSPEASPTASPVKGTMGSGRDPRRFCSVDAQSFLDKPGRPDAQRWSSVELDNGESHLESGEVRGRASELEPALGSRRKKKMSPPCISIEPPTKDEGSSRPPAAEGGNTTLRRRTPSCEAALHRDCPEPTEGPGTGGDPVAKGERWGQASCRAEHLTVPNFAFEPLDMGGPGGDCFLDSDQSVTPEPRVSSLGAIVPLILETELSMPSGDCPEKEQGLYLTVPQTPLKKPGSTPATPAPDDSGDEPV
Chain of UniProt O95180 (O95180 whole entry): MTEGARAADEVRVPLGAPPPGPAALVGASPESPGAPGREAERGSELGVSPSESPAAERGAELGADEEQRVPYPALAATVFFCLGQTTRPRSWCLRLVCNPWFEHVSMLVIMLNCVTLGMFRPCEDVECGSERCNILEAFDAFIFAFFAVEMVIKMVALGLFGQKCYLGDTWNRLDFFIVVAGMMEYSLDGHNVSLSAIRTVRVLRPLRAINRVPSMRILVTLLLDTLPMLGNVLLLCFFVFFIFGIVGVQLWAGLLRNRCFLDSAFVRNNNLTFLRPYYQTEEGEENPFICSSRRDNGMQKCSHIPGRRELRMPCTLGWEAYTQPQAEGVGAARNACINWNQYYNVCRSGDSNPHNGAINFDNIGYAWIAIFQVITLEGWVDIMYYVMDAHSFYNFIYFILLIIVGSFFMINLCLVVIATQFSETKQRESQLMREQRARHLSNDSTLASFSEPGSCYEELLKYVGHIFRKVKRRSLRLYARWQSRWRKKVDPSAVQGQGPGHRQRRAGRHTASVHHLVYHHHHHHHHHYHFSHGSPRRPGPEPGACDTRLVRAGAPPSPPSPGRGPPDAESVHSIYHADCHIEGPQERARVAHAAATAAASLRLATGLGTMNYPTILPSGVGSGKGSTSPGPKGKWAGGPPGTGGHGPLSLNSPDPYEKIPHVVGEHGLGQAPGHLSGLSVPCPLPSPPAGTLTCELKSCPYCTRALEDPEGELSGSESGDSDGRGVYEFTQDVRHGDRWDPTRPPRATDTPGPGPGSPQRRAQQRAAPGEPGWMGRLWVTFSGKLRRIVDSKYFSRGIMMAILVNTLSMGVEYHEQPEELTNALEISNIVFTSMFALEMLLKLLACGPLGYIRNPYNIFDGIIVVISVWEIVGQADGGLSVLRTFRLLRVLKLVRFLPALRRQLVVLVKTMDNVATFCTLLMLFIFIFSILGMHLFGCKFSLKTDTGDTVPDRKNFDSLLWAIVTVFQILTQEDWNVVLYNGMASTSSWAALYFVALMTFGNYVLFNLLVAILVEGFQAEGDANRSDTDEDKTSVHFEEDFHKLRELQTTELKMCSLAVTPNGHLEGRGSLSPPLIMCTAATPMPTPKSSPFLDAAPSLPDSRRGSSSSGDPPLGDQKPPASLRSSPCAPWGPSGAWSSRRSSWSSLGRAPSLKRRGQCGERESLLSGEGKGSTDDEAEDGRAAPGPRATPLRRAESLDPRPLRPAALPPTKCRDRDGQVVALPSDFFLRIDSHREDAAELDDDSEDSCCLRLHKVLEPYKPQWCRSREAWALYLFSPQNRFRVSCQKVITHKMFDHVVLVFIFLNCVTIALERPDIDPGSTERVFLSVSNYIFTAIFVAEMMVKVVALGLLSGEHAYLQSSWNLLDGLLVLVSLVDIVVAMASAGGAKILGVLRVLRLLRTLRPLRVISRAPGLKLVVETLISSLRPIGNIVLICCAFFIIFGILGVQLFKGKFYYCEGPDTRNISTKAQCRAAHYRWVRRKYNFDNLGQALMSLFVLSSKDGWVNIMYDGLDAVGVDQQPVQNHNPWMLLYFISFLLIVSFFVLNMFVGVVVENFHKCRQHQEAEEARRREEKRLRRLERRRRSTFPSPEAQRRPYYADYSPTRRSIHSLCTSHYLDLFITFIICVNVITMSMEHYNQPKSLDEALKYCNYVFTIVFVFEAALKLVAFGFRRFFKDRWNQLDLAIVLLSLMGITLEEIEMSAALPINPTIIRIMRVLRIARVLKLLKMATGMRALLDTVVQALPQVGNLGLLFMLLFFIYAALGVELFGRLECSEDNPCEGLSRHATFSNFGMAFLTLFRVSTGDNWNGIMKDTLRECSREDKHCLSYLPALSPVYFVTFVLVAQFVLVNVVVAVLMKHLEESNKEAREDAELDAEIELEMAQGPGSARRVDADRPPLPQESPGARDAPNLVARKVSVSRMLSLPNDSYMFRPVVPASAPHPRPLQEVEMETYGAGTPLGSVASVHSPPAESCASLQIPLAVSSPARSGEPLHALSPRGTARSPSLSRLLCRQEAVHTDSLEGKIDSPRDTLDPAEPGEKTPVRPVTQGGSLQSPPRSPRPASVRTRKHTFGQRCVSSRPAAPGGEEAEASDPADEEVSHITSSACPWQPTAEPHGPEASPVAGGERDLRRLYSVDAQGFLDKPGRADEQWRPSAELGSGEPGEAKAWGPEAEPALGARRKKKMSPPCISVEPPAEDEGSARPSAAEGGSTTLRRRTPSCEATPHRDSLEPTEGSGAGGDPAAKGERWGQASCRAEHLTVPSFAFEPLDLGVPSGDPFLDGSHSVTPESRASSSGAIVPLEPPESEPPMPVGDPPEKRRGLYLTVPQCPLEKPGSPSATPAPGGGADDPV

On to {EGFP}-GLRSRAQASNSAVDGTAGPGSRRSSWNSLGRAPSLKRR (designed binder, not shown: large carriers) [GFP3.2iPA1], for which, in test [1], the Activation curves (G/Gmax), V½ was -56.1 mV; the Inactivation curves (I/Imax), V½ is -69.8 mV; the Peak T-type calcium currents, HEK3.2 cells (second institution) amounted to 20.2 pA/pF; the reduction of peak Cav3.2 current density (ICa3.2), whole-cell voltage-clamp, HEK3.2 cells was found to be 70%. In the test with rat Cav3.2 (rat), this molecule returned an inhibition of peak LVA ICa (pA/pF), dissociated rat DRG neurons after AAV6 injection of 70%.

In the case of {EGFP}-GLRSRAQASNSAVDGTAGPGSRGRASELEPALGSRRKKKMSPP (designed binder, not shown: large carriers) [GFP3.2iPA4], the reduction of peak Cav3.2 current density (ICa3.2), whole-cell voltage-clamp, HEK3.2 cells in test [1] came out at 40%.

Regarding {EGFP}-GLRSRAQASNSAVDGTAGPGSRRREEKRLRRLERRRRKAQRRP (designed binder, not shown: large carriers) [GFP3.2iPA2], in test [1], the Activation curves (G/Gmax), V½ was -54.6 mV; the Inactivation curves (I/Imax), V½ is -68.8 mV; the Peak T-type calcium currents, HEK3.2 cells (second institution) stood at 11.8 pA/pF; the reduction of peak Cav3.2 current density (ICa3.2), whole-cell voltage-clamp, HEK3.2 cells is 60%. Also, the inhibition of peak LVA ICa (pA/pF), dissociated rat DRG neurons after AAV6 injection with rat Cav3.2 (rat) came to 60%.

Take GLRSRAQASNSAVDGTAGPGSPAAPVRASPASPGAPGREEQ (designed binder, not shown: large carriers) [GFP3.2NP]: in test [1], the Activation curves (G/Gmax), V½ is -54.1 mV; the Inactivation curves (I/Imax), V½ was -64.9 mV; the Peak T-type calcium currents, HEK3.2 cells (second institution) is 41.1 pA/pF.

In the case of {EGFP}-GLRSRAQASNSAVDGTAGPGSKRRSLRLYARWQSRWRKK (designed binder, not shown: large carriers) [GFP3.2iPA3], in the test with rat Cav3.2 (rat), the enhancement of peak LVA ICa, dissociated rat DRG neurons after AAV6 injection stood at 30%.

The values above are taken from patent US20230018405A1.
